Source: publication PMC11807975, “The secreted host-cell protein clusterin interacts with PmpD and promotes Chlamydia trachomatis infection” (Frontiers in Cellular and Infection Microbiology, 2024)
Values joined by “and” are separate entries in the source; they are usually repeats but may differ in a detail not shown here. Equal entries are not always repeated.

Target: the molecule itself
Assay: native gel or EMSA; Blue Native-PAGE (Native PAGE Novex 3-12% Bis-Tris) of the SEC elution fraction of rD72 at 1.4 ml; Coomassie stain

B1: recombinant D72 (rD72), proteolytically processed fragment of Chlamydia trachomatis serovar E PmpD, residues 68-761, N-terminal 10x His-Tag (domain or fragment)
chain: DSQAEGQYRLIVGDPSSFQEKDADTLPGKVEQSTLFSVTNPVVFQGVDQQDQVSSQGLICSFTSSNLDSPRDGESFLGIAFVGDSSKAGITLTDVKASLSGAALYSTEDLIFEKIKGGLEFASCSSLEQGGACAAQSILIHDCQGLQVKHCTTAVNAEGSSANDHLGFGGGAFFVTGSLSGEKSLYMPAGDMVVANCDGAISFEGNSANFANGGAIAASGKVLFVANDKKTSFIENRALSGGAIAASSDIAFQNCAELVFKGNCAIGTEDKGSLGGGAISSLGTVLLQGNHGITCDKNESASQGGAIFGKNCQISDNEGPVVFRDSTACLGGGAIAAQEIVSIQNNQAGISFEGGKASFGGGIACGSFSSAGGASVLGTIDISKNLGAISFSRTLCTTSDLGQMEYQGGGALFGENISLSENAGVLTFKDNIVKTFASNGKILGGGAILATGKVEITNNSEGISFTGNARAPQALPTQEEFPLFSKKEGRPLSSGYSGGGAILGREVAILHNAAVVFEQNRLQCSEEEATLLGCCGGGAVHGMDSTSIVGNSSVRFGNNYAMGQGVSGGALLSKTVQLAGNGSVDFSRNIASLGGGALQASEGNCELVDNGYVLFRDNRGRVYGGAISCLRGDVVISGNKGRVEFKDNIATRLYVEETVEKVEEVEPAPEQKDNNELSFLGRAEQSFITAANQA
notes: In solution a high-molecular-weight oligomer (720-1048 kDa by Blue Native-PAGE, calculated 10- to 15-mer); also called rPmpD; His-PmpD; source: E. coli Origami, purified (Ni-NTA agarose, dialysed in PBS); not shown: 10xHis, N-terminal, kept; copies: 10-15
Q: For B1, which “stoichiometry N” value is on record?
A: 10 and 15
